T1: full-length human CD22 fused with flag and Myc tags at the C-terminus, on HEK293 or K562 cells (human, UniProt P20273 20-847)
T1 construct: whole, on cells; also called CD22/K562; CD22/HEK293; not shown: C-terminal flag and Myc tags of the pCMV6-Entry vector
T1 sequence (looked up): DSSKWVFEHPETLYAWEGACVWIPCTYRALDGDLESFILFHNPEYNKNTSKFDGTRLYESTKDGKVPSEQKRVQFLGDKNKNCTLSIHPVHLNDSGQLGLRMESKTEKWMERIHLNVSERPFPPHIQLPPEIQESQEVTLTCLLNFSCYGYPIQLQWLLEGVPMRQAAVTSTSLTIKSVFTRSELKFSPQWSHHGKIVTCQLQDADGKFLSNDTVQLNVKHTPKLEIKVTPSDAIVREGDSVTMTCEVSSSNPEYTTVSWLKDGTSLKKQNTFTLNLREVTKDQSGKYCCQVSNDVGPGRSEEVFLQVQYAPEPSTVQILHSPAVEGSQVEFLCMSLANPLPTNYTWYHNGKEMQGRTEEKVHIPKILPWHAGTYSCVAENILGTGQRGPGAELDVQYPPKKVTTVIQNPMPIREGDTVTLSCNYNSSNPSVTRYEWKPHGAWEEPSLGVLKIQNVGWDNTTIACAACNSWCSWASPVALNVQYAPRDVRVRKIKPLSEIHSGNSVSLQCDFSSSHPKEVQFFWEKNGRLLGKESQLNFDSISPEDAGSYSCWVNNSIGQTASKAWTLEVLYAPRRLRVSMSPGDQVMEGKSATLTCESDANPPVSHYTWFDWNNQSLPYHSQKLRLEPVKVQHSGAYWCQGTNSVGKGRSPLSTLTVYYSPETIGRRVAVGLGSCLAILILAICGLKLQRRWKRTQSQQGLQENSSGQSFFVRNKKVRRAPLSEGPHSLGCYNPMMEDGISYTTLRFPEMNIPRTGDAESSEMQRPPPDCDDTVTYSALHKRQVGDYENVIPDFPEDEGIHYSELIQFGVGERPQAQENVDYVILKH

T2: human CD22-Fc fusion protein (human, UniProt P20273 20-687, limits assumed)
T2 construct: also called recombinant CD22-Fc fusion protein; not shown: Fc part
T2 sequence (looked up): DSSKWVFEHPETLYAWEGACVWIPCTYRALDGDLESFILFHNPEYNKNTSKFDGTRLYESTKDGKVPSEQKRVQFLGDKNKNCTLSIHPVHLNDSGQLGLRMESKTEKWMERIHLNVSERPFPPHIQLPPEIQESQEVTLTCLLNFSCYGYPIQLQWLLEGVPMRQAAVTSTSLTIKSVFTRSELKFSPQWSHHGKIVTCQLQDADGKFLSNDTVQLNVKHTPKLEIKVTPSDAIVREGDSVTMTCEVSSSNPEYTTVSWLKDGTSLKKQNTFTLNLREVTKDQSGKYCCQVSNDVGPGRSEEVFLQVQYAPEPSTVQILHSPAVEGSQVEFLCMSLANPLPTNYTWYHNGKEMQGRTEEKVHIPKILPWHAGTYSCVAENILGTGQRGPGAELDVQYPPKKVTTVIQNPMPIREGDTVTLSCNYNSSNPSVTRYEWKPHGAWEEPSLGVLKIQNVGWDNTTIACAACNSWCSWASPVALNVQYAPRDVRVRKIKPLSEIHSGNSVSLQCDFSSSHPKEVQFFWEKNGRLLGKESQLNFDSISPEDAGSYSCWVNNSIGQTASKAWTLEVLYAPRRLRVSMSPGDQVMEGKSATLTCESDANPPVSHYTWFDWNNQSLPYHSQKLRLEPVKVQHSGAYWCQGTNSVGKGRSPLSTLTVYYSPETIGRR


Tests used:
[1] = target: T1, full-length human CD22 fused with flag …; test: FACS, scFv titrated on CD22-expressing cells, anti-His Alexa 488
[2] = target: T2, human CD22-Fc fusion protein; test: SPR Biacore T200; CD22-Fc captured on Protein G chip, scFv as analyte;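 note: run in 1×HBST buffer, with the response of reference flow cell 1 subtracted from the CD22 capture cell and kinetics fitted in Biacore T200 evaluation software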
[3] = target: T1, full-length human CD22 fused with flag …; test: cell-based or functional assay
[4] = target: T1, full-length human CD22 fused with flag …; test: cell-based or functional assay; remark: listed apart in the source
[5] = target: T1, full-length human CD22 fused with flag …; test: ELISA, IgG format; antigen format not described
[6] = target: T3, CD123 on the surface of CHO-K1 cells (UniProt P26951 19-378); test: FACS on CHO-K1 cells expressing CD123, anti-hFc Alexa 488
T3 construct: whole, on cells; Negative control cells that express CD123 but not CD22; also called CHOK1-CD123; cell surface CD123

[7] = target: T1, full-length human CD22 fused with flag …; test: FACS on CD22-expressing cells (HEK293-CD22 by the table's head), anti-hFc Alexa 488
[8] = target: T1, full-length human CD22 fused with flag …; test: FACS, antibody fragment titrated on CD22-expressing cells, anti-His Alexa 488
[9] = target: T1, full-length human CD22 fused with flag …; test: FACS on CD22 K562 cells, competitor 1.77 nM M971
[10] = target: T1, full-length human CD22 fused with flag …; test: FACS on CD22 K562 cells, competitor 5.13 nM M971
[11] = target: T1, full-length human CD22 fused with flag …; test: FACS on CD22 K562 cells, competitor 0.77 nM BL22
[12] = target: T1, full-length human CD22 fused with flag …; test: FACS on CD22 K562 cells, competitor 0.175 nM BL22
[13] = target: T1, full-length human CD22 fused with flag …; test: FACS on CD22 K562 cells, scFv alone (M971 binning experiment)
[14] = target: T1, full-length human CD22 fused with flag …; test: FACS on CD22 K562 cells, scFv alone (BL22 binning experiment)

T3 sequence (P26951 19-378 limits assumed): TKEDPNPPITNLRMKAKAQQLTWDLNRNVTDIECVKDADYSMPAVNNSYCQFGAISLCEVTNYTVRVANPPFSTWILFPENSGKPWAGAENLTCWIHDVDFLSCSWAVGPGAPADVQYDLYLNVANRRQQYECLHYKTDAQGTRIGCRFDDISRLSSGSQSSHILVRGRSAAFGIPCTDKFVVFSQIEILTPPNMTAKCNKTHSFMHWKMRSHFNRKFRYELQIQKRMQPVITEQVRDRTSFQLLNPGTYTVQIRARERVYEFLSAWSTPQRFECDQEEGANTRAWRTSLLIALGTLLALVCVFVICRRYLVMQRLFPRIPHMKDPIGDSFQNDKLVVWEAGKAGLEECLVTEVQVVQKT

Binder | EC50 [1] | Kd [2] | koff [2] | kon [2] | EC50 in ADCC assay (Promega ADCC Bioreporter, CD22/HEK293 target cells) [3] | T½ (Hour) of internalization, CD22/HEK293 cells, pHrodo secondary [4] | other results
EP97-B03 (IgG) (antibody, V domains shown) VH: QLVQSGAEVKKPGASVKVSCKASGYTFSSYGITWVRQAPGQGLEWMGWISAYNGNTNYAQKFQGRVTLTTDTSTSIAYMELRSLTSDDTAVYYCATGGQEDYWGQGTLVTVSS VL: not shown | – | – | – | – | 3710 pM | 5.26 Hour | –
EP160-H02 (IgG) (antibody, V domains shown) VH: QVQLVQSGAEVKKPGASVKVSCKASGYTFTSYGISWVRQAPGQGLEWMGGIIAYNGNTNYAQKLQGRVTMTTDTSTSTAYMELRSLRSDDTAVYYCARDPPEYSSSAGTDYWGQGTLVTVSS VL: EIVMTQSPATLSVSPGEGVTLSCRASQSVSSNLAWYQQRPGQAPRLLIYGASIKATDVPDRFSGGGSGTDFTLSITNLQSEDFAVYYCQQYHTWSPVTFGGGTKVEIK | – | – | – | – | ~73800 pM | – | –
EP160-F10 (a single domain antibody) (VHH, Human VH-only single domain antibody from a human library (not a camelid VHH); not shown: C-terminal flag and 6xHIS tag) VHH: EVQLVESGGGVVQPGRSLRLSCVASGFTFRNYGMQWVRQTPDKGLEWVAVTAHDGTVQYYVDSVKGRFTISRDNSKDTLYLQMNSLRVADTAVYYCAKEATPRAADHFDYWGQGTLGTVSS | – | – | – | – | – | – | EC50 [8]: 9000 pM
EP160-D02 scFv (scFv, VH-VL orientation; made in E. coli, His-tag purified; also called EP160-D2; not shown: C-terminal flag and 6xHIS tag) scFv: QVQLVQSGAEVKKPGASVKVSCKASGYTFTSYGISWVRQAPGQGLEWMGWISAYNGNTNYAQKLQGRVTMTTDTSTSTAYMELRSLRSDDTAVYYCARDPLEPLESDYWGQGTLVTVSSGGGGSGGGGSGGGGSEIVMTQSPATLSVSPGEGVTLSCRASQSVSSNLAWYQQRPGQAPRLLIYGASIKATDVPDRFSGGGSGTDFSLSITNLQSEDFAVYYCQQYHTWPPVTFGGGTKVEIK | 240 pM | 19.4 pM | 0.000107 s⁻¹ | 5.51e+06 M⁻¹ s⁻¹ | – | – | EC50 [9]: 94.6 pM; EC50 [10]: 144 pM; IC50 [11]: 89.8 pM; IC50 [12]: 81.1 pM; EC50 [13]: 125 pM; IC50 [14]: 82.2 pM
M971 IgG antibody (antibody, V domains shown, Known fully human anti-CD22 antibody used as IgG; also called IgG M971) VH: QVQLQQSGPGLVKPSQTLSLTCAISGDSVSSNSAAWNWIRQSPSRGLEWLGRTYYRSWYNDYAVSVKSRITINPDTSKNQFSLQLNSVTPEDTAVYYCAREVTGDLEDAFDIWGQGTMVTVSS VL: DIQMTQSPSSLSASVGDRVTITCRASQTIWSYLNWYQQRPGKAPNLLIYAASSLQSGVPSRFSGRGSGTDFTLTISSLQAEDFATYYCQQSYSIPQTFGQGTKLEIK | – | – | – | – | – | 6.07 Hour | EC50 [5]: 59 pM

Continued, in another order:

EC50 [1] | Kd [2] | koff [2] | kon [2] | EC50 in ADCC assay (Promega ADCC Bioreporter, CD22/HEK293 target cells) [3] | T½ (Hour) of internalization, CD22/HEK293 cells, pHrodo secondary [4] | Binder | other results
1100 pM | 322 pM | 4.03e-05 s⁻¹ | 125000 M⁻¹ s⁻¹ | – | – | EP160-G04 scFv (scFv, VH-VL orientation; not shown: C-terminal flag and 6xHIS tag) scFv: QVQLVQSGAEVKKPGASVKVSCKASGYTFSSYGITWVRQAPGQGLEWMGWISAYNGNTNYAQKFQGRVTLTTDTSTSIAYMELRSLTSDDTAVYYCATGGQEDYWGQGTLVTVSSGGGGSGGGGSGGGGSEIVMTQSPATLSVSPGERATLSCRASQSVSSNLAWYQQKPGQAPRLLIYDASTRATGIPARFSGSGSGTEFTLTISSLQSEDFAVYYCQQYHNWAPLTFGGGTKVGIK | –
– | – | – | – | 1950 pM | 5.06 Hour | EP160-D02 (IgG) (antibody, V domains shown, also called EP160-D2 (IgG)) VH: QVQLVQSGAEVKKPGASVKVSCKASGYTFTSYGISWVRQAPGQGLEWMGWISAYNGNTNYAQKLQGRVTMTTDTSTSTAYMELRSLRSDDTAVYYCARDPLEPLESDYWGQGTLVTVSS VL: EIVMTQSPATLSVSPGEGVTLSCRASQSVSSNLAWYQQRPGQAPRLLIYGASIKATDVPDRFSGGGSGTDFSLSITNLQSEDFAVYYCQQYHTWPPVTFGGGTKVEIK | EC50 [5]: 39 pM; binding result [6]: no binding; EC50 [7]: 101 pM
2790 pM | 5890 pM | 0.000283 s⁻¹ | 40500 M⁻¹ s⁻¹ | – | – | EP160-F04 scFv (scFv, VH-VL orientation; not shown: C-terminal flag and 6xHIS tag) scFv: EVQLVQSGAEVKKPGASVKVSCKASGYTFTSYGISWVRQAPGQGLEWMGWISAYNGNTNYAQKLQGRVTMTTDTSTSTAYMELRSLKSDDTAVYYCAISIGAFDIWGQGTMVTVSSGGGGSGGGGSGGGGSEIVMTQSPATLSVSPGEEVTLSCRASQSVSSNLAWYQQRPGQAPRLLIYGASIKATDVPDRFSGGGSGTDFTLSISNLQSEDFAVYYCQQYHTWPPVTFGGGTKVEIK | –
